Patent US20210380703A1 (RIGEL PHARMACEUTICALS, published 2021)

Assays:
Human ACVR2A = target: T1, Human ACVR2A (human, UniProt P27037 20-135, limits assumed); assay: ELISA
T1 construct: also called activin receptor, type II A
In short: (§1)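 Monoclonal antibodies were first applied to human or mouse ACVR2A, alongside biotinylated goat anti-human kappa light chain (positive control) and human Fc (negative control); binding was then determined by ELISA.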

Mouse ACVR2A = Mouse ACVR2A (mouse, UniProt P27038 20-135, limits assumed); assay: ELISA
Sequence of Mouse ACVR2A (P27038 20-135 limits assumed): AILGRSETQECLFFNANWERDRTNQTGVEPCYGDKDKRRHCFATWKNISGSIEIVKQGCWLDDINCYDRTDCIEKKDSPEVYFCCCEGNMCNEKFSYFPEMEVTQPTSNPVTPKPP
In short: as §1

Goat anti-Human Kappa = target: T2, Goat anti-Human Kappa; assay: ELISA; positive control
T2 construct: Positive control; also called biotinylated goat anti-human kappa light chain
In short: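 mAb binding by ELISA; antigens: hu ACVR2A, mu ACVR2A; pos ctrl biotinylated goat anti-hu kappa LC; neg ctrl hu Fc.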
Also: test concentration or dose not given here.

T1 sequence (P27037 20-135 limits assumed): as the sequence (P27038 20-135 limits assumed) above, with R20K, I73V counted along it

B1: 371_G01 (antibody, V domains shown)
VH: EVQLLESGGGLVQPGGSLRLSCAASGFTFSDYSMNWVRQAPGKGLEWVSNINYNGGYTSYADSVKGRFTISRDNSKNTLYLQMNSLRAEDTAVYYCARGATWHDTHLDYWGQGTLVTVSS
VL: DIQMTQSPSSLSASVGDRVTITCRASQSILTYLNWYQQKPGKAPKLLIYAATSLASGVPSRFSGSGSGTDFTLTISSLQPEDFATYYCQQSYDLPLTFGGGTKVEIK
notes: VH/VL only
- optical density (Human ACVR2A): 2.01 OD
- optical density (Mouse ACVR2A): 2.24 OD
- optical density (Goat anti-Human Kappa): 1.79 OD

B2: 371_H11 (antibody, V domains shown)
VH: EVQLLESGGGLVQPGGSLRLSCAASGFTFSSYSMNWVRQAPGKGLEWVSGINYNGGYKGYADSVKGRFTISRDNSKNTLYLQMNSLRAEDTAVYYCARGATWHDTHLDYWGQGTLVTVSS
VL: DIQMTQSPSSLSASVGDRVTITCRASQSILTYLNWYQQKPGKAPKLLIYATTSRHSGVPSRFSGSGSGTDFTLTISSLQPEDFATYYCQQSYESPLTFGGGTKVEIK
notes: VH/VL only
- optical density (Human ACVR2A): 2.89 OD
- optical density (Mouse ACVR2A): 3.12 OD
- optical density (Goat anti-Human Kappa): 3.6 OD

B3: 372_B09 (antibody, V domains shown)
VH: EVQLLESGGGLVQPGGSLRLSCAASGFTFSSYSMNWVRQAPGKGLEWVSSINYNSGYTSYADSVKGRFTISRDNSKNTLYLQMNSLRAEDTAVYYCARGATWHDTHLDYWGQGTLVTVSS
VL: DIQMTQSPSSLSASVGDRVTITCRASQSILTYLNWYQQKPGKAPKLLIYAATSRASGVPSRFSGSGSGTDFTLTISSLQPEDFATYYCQQSYETPLTFGGGTKVEIK
notes: VH/VL only
- optical density (Human ACVR2A): 3.11 OD
- optical density (Mouse ACVR2A): 3.01 OD
- optical density (Goat anti-Human Kappa): 3.5 OD

B4: 372_E08 (antibody, V domains shown)
VH: EVQLLESGGGLVQPGGSLRLSCAASGFTFSDYSMNWVRQAPGKGLEWVSNINYNGGYTSYADSVKGRFTISRDNSKNTLYLQMNSLRAEDTAVYYCARGATWHDTHLDYWGQGTLVTVSS
VL: DIQMTQSPSSLSASVGDRVTITCRASQSIITYLNWYQQKPGKAPKLLIYAATSRASGVPSRFSGSGSGTDFTLTISSLQPEDFATYYCQQSYNLPLTFGGGTKVEIK
notes: VH/VL only
- optical density (Human ACVR2A): 2.56 OD
- optical density (Mouse ACVR2A): 2.82 OD
- optical density (Goat anti-Human Kappa): 3.51 OD

B5: 372_F02 (antibody, V domains shown)
VH: EVQLLESGGGLVQPGGSLRLSCAASGFTFSSYGMHWVRQAPGKGLEWVASINYNGGYTSYADSVKGRFTISRDNSKNTLYLQMNSLRAEDTAVYYCARGATWHDTHLDYWGQGTLVTVSS
VL: DIQMTQSPSSLSASVGDRVTITCRASQSILTYLNWYQQKPGKAPKLVIYAATSRHSGVPSRFSGSGSGTDFTLTISSLQPEDFATYYCQQSYDLPLTFGGGTKVEIK
notes: VH/VL only
- optical density (Human ACVR2A): 3.01 OD
- optical density (Mouse ACVR2A): 3.09 OD
- optical density (Goat anti-Human Kappa): 3.69 OD

B6: 372_H11 (antibody, V domains shown)
VH: EVQLLESGGGLVQPGGSLRLSCAASGFTFSSYGMHWVRQAPGKGLEWVAGINYNGGYTSYADSVKGRFTISRDNSKNTLYLQMNSLRAEDTAVYYCARGATWHDTHLDYWGQGTLVTVSS
VL: DIQMTQSPSSLSASVGDRVTITCRASQSILSYVNWYQQKPGKAPKLLIYAATSRASGVPSRFSGSGSGTDFTLTISSLQPEDFATYYCQQSYENPLTFGGGTKVEIK
notes: VH/VL only
- optical density (Human ACVR2A): 2.62 OD
- optical density (Mouse ACVR2A): 2.86 OD
- optical density (Goat anti-Human Kappa): 3.65 OD

B7: 373_A06 (antibody, V domains shown)
VH: EVQLLESGGGLVQPGGSLRLSCAASGFTFSSYSMNWVRQAPGKGLEWVSGINYNGGYKSYADSVKGRFTISRDNSKNTLYLQMNSLRAEDTAVYYCARGATWHDTHLDYWGQGTLVTVSS
VL: not shown
notes: VH/VL only
- optical density (Human ACVR2A): 3.64 OD
- optical density (Mouse ACVR2A): 3.62 OD
- optical density (Goat anti-Human Kappa): 3.07 OD

B8: 373_B09 (antibody, V domains shown)
VH: EVQLLESGGGLVQPGGSLRLSCAASGFTFDSYSMNWVRQAPGKGLEWVSGINYNGGYKSYADSVKGRFTISRDNSKNTLYLQMNSLRAEDTAVYYCARGATWHDTHLDYWGQGTLVTVSS
VL: DIQMTQSPSSLSASVGDRVTITCRASQSILSYLNWYQQKPGKAPKLVIYAATSLASGVPSRFSGSGSGTDFTLTISSLQPEDFATYYCQQSYETPLTFGGGTKVEIK
notes: VH/VL only
- optical density (Human ACVR2A): 3.6 OD
- optical density (Mouse ACVR2A): 3.62 OD
- optical density (Goat anti-Human Kappa): 3.24 OD

B9: 373_D06 (antibody, V domains shown)
VH: EVQLLESGGGLVQPGGSLRLSCAASGFTFSSYSMNWVRQAPGKGLEWVAGINYNGGYTSYADSVKGRFTISRDNSKNTLYLQMNSLRAEDTAVYYCARGATWHDTHLDYWGQGTLVTVSS
VL: DIQMTQSPSSLSASVGDRVTITCRASQSIVTYLNWYQQKPGKAPKLLIYAATSRASGVPSRFSGSGSGTDFTLTISSLQPEDFATYYCQQSYDTPLTFGGGTKVEIK
notes: VH/VL only
- optical density (Human ACVR2A): 3.63 OD
- optical density (Mouse ACVR2A): 3.57 OD
- optical density (Goat anti-Human Kappa): 3.21 OD

B10: 373_F07 (antibody, V domains shown)
VH: EVQLLESGGGLVQPGGSLRLSCAASGFTFSSYSMNWVRQAPGKGLEWVSGINYNSGYKSYADSVKGRFTISRDNSKNTLYLQMNSLRAEDTAVYYCARGATWHDTHLDYWGQGTLVTVSS
VL: DIQMTQSPSSLSASVGDRVTITCRASQSILSYLNWYQQKPGKAPKLLIYAATSLASGVPSRFSGSGSGTDFTLTISSLQPEDFATYYCQQSYETPLTFGGGTKVEIK
notes: VH/VL only
- optical density (Human ACVR2A): 3.61 OD
- optical density (Mouse ACVR2A): 3.62 OD
- optical density (Goat anti-Human Kappa): 3.13 OD

B11: 373_G02 (antibody, V domains shown)
VH: EVQLLESGGGLVQPGGSLRLSCAASGFTFSSYSMNWVRQAPGKGLEWVSGINYNGGYTSYADSVKGRFTISRDNSKNTLYLQMNSLRAEDTAVYYCARGATWHDTHLDYWGQGTLVTVSS
VL: DIQMTQSPSSLSASVGDRVTITCRASQSIITYLNWYQQKPGKAPKLLIYAATSRASGVPSRFSGSGSGTDFTLTISSLQPEDFATYYCQQSYSSPLTFGGGTKVEIK
notes: VH/VL only
- optical density (Human ACVR2A): 3.59 OD
- optical density (Mouse ACVR2A): 3.56 OD
- optical density (Goat anti-Human Kappa): 3.22 OD

B12: 374_A04 (antibody, V domains shown)
VH: EVQLLESGGGLVQPGGSLRLSCAASGFTFSSYSMNWVRQAPGKGLEWVAGINYNGGYTSYADSVKGRFTISRDNSKNTLYLQMNSLRAEDTAVYYCARGATWHDTHLDYWGQGTLVTVSS
VL: DIQMTQSPSSLSASVGDRVTITCRASQSILTYLNWYQQKPGKAPKLVIYAATSRASGVPSRFSGSGSGTDFTLTISSLQPEDFATYYCQQSYDTPLTFGGGTKVEIK
notes: VH/VL only
- optical density (Human ACVR2A): 3.65 OD
- optical density (Mouse ACVR2A): 3.68 OD
- optical density (Goat anti-Human Kappa): 2.99 OD

B13: 374_A05 (antibody, V domains shown)
VH: EVQLLESGGGLVQPGGSLRLSCAASGFTFSDYGMNWVRQAPGKGLEWVANINYNGGYKGYADSVKGRFTISRDNSKNTLYLQMNSLRAEDTAVYYCARGATWHDTHLDYWGQGTLVTVSS
VL: DIQMTQSPSSLSASVGDRVTITCRASQSIVRYLNWYQQKPGKAPKLVIYAATSLASGVPSRFSGSGSGTDFTLTISSLQPEDFATYYCQQSYELPLTFGGGTKVEIK
notes: VH/VL only
- optical density (Human ACVR2A): 3.6 OD
- optical density (Mouse ACVR2A): 3.6 OD
- optical density (Goat anti-Human Kappa): 2.92 OD

B14: 374_C10 (antibody, V domains shown)
VH: EVQLLESGGGLVQPGGSLRLSCAASGFTFSSYSMNWVRQAPGKGLEWVSSINYNGGYKGYADSVKGRFTISRDNSKNTLYLQMNSLRAEDTAVYYCARGATWHDTHLDYWGQGTLVTVSS
VL: DIQMTQSPSSLSASVGDRVTITCRASQSIVTYLNWYQQKPGKAPKLLIYAATSLASGVPSRFSGSGSGTDFTLTISSLQPEDFATYYCQQSYNTPLTFGGGTKVEIK
notes: VH/VL only
- optical density (Human ACVR2A): 3.57 OD
- optical density (Mouse ACVR2A): 3.67 OD
- optical density (Goat anti-Human Kappa): 3.08 OD

B15: 374_D04 (antibody, V domains shown)
VH: EVQLLESGGGLVQPGGSLRLSCAASGFTFSSYSMNWVRQAPGKGLEWVAGINYNGGYTSYADSVKGRFTISRDNSKNTLYLQMNSLRAEDTAVYYCARGATWHDTHLDYWGQGTLVTVSS
VL: DIQMTQSPSSLSASVGDRVTITCRASQSILSYLNWYQQKPGKAPKLVIYAATSRHSGVPSRFSGSGSGTDFTLTISSLQPEDFATYYCQQSYDTPLTFGGGTKVEIK
notes: VH/VL only
- optical density (Human ACVR2A): 3.63 OD
- optical density (Mouse ACVR2A): 3.65 OD
- optical density (Goat anti-Human Kappa): 3.05 OD

B16: 374_D09 (antibody, V domains shown)
VH: EVQLLESGGGLVQPGGSLRLSCAASGFTFDSYGMNWVRQAPGKGLEWVANINYNGGYKGYADSVKGRFTISRDNSKNTLYLQMNSLRAEDTAVYYCARGATWHDTHLDYWGQGTLVTVSS
VL: DIQMTQSPSSLSASVGDRVTITCRASQSIISYVNWYQQKPGKAPKLLIYAATSLASGVPSRFSGSGSGTDFTLTISSLQPEDFATYYCQQSYDTPLTFGGGTKVEIK
notes: VH/VL only
- optical density (Human ACVR2A): 3.61 OD
- optical density (Mouse ACVR2A): 3.65 OD
- optical density (Goat anti-Human Kappa): 3.1 OD

B17: 374_G05 (antibody, V domains shown)
VH: EVQLLESGGGLVQPGGSLRLSCAASGFTFSSYSMNWVRQAPGKGLEWVSNINYNSGYKGYADSVKGRFTISRDNSKNTLYLQMNSLRAEDTAVYYCARGATWHDTHLDYWGQGTLVTVSS
VL: DIQMTQSPSSLSASVGDRVTITCRASQSIISYLNWYQQKPGKAPKLLIYAATSRASGVPSRFSGSGSGTDFTLTISSLQPEDFATYYCQQSYDLPLTFGGGTKVEIK
notes: VH/VL only
- optical density (Human ACVR2A): 3.66 OD
- optical density (Mouse ACVR2A): 3.67 OD
- optical density (Goat anti-Human Kappa): 3 OD

B18: 374_H05 (antibody, V domains shown)
VH: EVQLLESGGGLVQPGGSLRLSCAASGFTFSSYSMNWVRQAPGKGLEWVAGINYNGGYTSYADSVKGRFTISRDNSKNTLYLQMNSLRAEDTAVYYCARGATWHDTHLDYWGQGTLVTVSS
VL: DIQMTQSPSSLSASVGDRVTITCRASQSILSYVNWYQQKPGKAPKLVIYAATSRASGVPSRFSGSGSGTDFTLTISSLQPEDFATYYCQQSYDNPLTFGGGTKVEIK
notes: VH/VL only
- optical density (Human ACVR2A): 3.31 OD
- optical density (Mouse ACVR2A): 3.3 OD
- optical density (Goat anti-Human Kappa): 3.04 OD

B19: 375_A03 (antibody, V domains shown)
VH: EVQLLESGGGLVQPGGSLRLSCAASGFTFDSYSMNWVRQAPGKGLEWVAGINYNGGYTSYADSVKGRFTISRDNSKNTLYLQMNSLRAEDTAVYYCARGATWHDTHLDYWGQGTLVTVSS
VL: DIQMTQSPSSLSASVGDRVTITCRASQSILTYLNWYQQKPGKAPKLLIYAATSRHSGVPSRFSGSGSGTDFTLTISSLQPEDFATYYCQQSYDNPLTFGGGTKVEIK
notes: VH/VL only
- optical density (Human ACVR2A): 3.62 OD
- optical density (Mouse ACVR2A): 3.62 OD
- optical density (Goat anti-Human Kappa): 3.09 OD
